Starred links: 1 amine or outer side, 2 acyl side, 3 side chain; linkers in the order of their positions; H or OH if unused. Non-standard residues stand in square brackets, D forms with d. Groups on a side chain read outwards from the residue. No end group written: not given here. *: point of attachment. C20 diacid = O=C(O)CCCCCCCCCCCCCCCCCCC(=O)*; C18 diacid = O=C(O)CCCCCCCCCCCCCCCCC(=O)*; γGlu = O=C(O)[C@H](CCC(=O)[*:2])N[*:1]; αMeF = C[C@](N)(Cc1ccccc1)C(=O)O; AEEA = NCCOCCOCC(=O)O; Aib = CC(C)(N)C(=O)O
B1: Peptide 225 (peptide)
peptide: H[Aib]HGS[αMeF]TSDVSK[αMeF]LDSRAAK([AEEA-AEEA-γGlu-C18 diacid])D[αMeF]VQ[Aib]IANT-NH2
modifications: N-terminus assumed
SMILES: CC[C@H](C)[C@H](NC(=O)C(C)(C)NC(=O)[C@H](CCC(N)=O)NC(=O)[C@@H](NC(=O)[C@](C)(Cc1ccccc1)NC(=O)[C@H](CC(=O)O)NC(=O)[C@H](CCCCNC(=O)COCCOCCNC(=O)COCCOCCNC(=O)CC[C@H](NC(=O)CCCCCCCCCCCCCCCCC(=O)O)C(=O)O)NC(=O)[C@H](C)NC(=O)[C@H](C)NC(=O)[C@H](CCCNC(=N)N)NC(=O)[C@H](CO)NC(=O)[C@H](CC(=O)O)NC(=O)[C@H](CC(C)C)NC(=O)[C@](C)(Cc1ccccc1)NC(=O)[C@H](CCCCN)NC(=O)[C@H](CO)NC(=O)[C@@H](NC(=O)[C@H](CC(=O)O)NC(=O)[C@H](CO)NC(=O)[C@@H](NC(=O)[C@](C)(Cc1ccccc1)NC(=O)[C@H](CO)NC(=O)CNC(=O)[C@H](Cc1c[nH]cn1)NC(=O)C(C)(C)NC(=O)[C@@H](N)Cc1c[nH]cn1)[C@@H](C)O)C(C)C)C(C)C)C(=O)N[C@@H](C)C(=O)N[C@@H](CC(N)=O)C(=O)N[C@H](C(N)=O)[C@@H](C)O
B2: Peptide 246 (peptide)
peptide: H[Aib]HGS[αMeF]TSDVSK[αMeF]LDSRAAK([AEEA-AEEA-γGlu-γGlu-C20 diacid])D[αMeF]VESIANT-NH2
modifications: N-terminus assumed
SMILES: CC[C@H](C)[C@H](NC(=O)[C@H](CO)NC(=O)[C@H](CCC(=O)O)NC(=O)[C@@H](NC(=O)[C@](C)(Cc1ccccc1)NC(=O)[C@H](CC(=O)O)NC(=O)[C@H](CCCCNC(=O)COCCOCCNC(=O)COCCOCCNC(=O)CC[C@H](NC(=O)CC[C@H](NC(=O)CCCCCCCCCCCCCCCCCCC(=O)O)C(=O)O)C(=O)O)NC(=O)[C@H](C)NC(=O)[C@H](C)NC(=O)[C@H](CCCNC(=N)N)NC(=O)[C@H](CO)NC(=O)[C@H](CC(=O)O)NC(=O)[C@H](CC(C)C)NC(=O)[C@](C)(Cc1ccccc1)NC(=O)[C@H](CCCCN)NC(=O)[C@H](CO)NC(=O)[C@@H](NC(=O)[C@H](CC(=O)O)NC(=O)[C@H](CO)NC(=O)[C@@H](NC(=O)[C@](C)(Cc1ccccc1)NC(=O)[C@H](CO)NC(=O)CNC(=O)[C@H](Cc1c[nH]cn1)NC(=O)C(C)(C)NC(=O)[C@@H](N)Cc1c[nH]cn1)[C@@H](C)O)C(C)C)C(C)C)C(=O)N[C@@H](C)C(=O)N[C@@H](CC(N)=O)C(=O)N[C@H](C(N)=O)[C@@H](C)O

Target: human GLP-1 receptor (human, UniProt P43220 24-463)
Test: cell-based or functional assay

| hGLP-1R EC50 (pM), cAMP | Binder |
| --- | --- |
| 119 pM | H[Aib]HGS[αMeF]TSDVSK[αMeF]LDSR[Aib]AK([AEEA-AEEA-γGlu-C20 diacid])DFVESIANT-NH2 [Peptide 252] |
| 34.9 pM | B1 |
| 320 pM | B2 |
| 79.8 pM | H[Aib]HGS[αMeF]TSDVSK[αMeF]LDSR[Aib]AK([AEEA-AEEA-γGlu-C18 diacid])DFVESIANT-NH2 (not fully specified) [Peptide 251] |
| 601 pM | H[Aib]HGS[αMeF]TSDVSK[αMeF]LDSR[Aib]AK([AEEA-AEEA-γGlu-γGlu-C18 diacid])D[αMeF]VESIANT-NH2 [Peptide 250] |
| 70.5 pM | H[Aib]HGS[αMeF]TSDVSK[αMeF]LDSRAAK([AEEA-AEEA-γGlu-C18 diacid])D[αMeF]VE[Aib]IANT-NH2 [Peptide 227] |
| 143 pM | H[Aib]HGS[αMeF]TSDVSK[αMeF]LDSRAAK([AEEA-AEEA-γGlu-γGlu-C20 diacid])D[αMeF]VQSIANT-NH2 (not fully specified) [Peptide 244] |

Target: human glucagon receptor (human, UniProt P47871 26-477)
Sequence (P47871 26-477): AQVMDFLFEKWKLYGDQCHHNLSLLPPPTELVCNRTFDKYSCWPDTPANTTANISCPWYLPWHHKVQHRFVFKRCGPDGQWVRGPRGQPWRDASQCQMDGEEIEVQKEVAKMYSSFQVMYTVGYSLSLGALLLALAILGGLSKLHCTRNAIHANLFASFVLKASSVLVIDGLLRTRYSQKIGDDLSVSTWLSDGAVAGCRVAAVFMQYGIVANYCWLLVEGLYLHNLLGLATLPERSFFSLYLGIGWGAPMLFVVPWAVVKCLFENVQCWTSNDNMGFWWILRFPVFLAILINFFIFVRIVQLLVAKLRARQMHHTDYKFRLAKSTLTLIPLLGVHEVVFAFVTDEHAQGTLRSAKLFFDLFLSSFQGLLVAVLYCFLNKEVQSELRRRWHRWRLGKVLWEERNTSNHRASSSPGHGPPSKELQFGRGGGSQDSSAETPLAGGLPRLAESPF
Test: cell-based or functional assay

| hGluc-R EC50 (pM), cAMP | Binder |
| --- | --- |
| 1310 pM | H[Aib]HGS[αMeF]TSDVSK[αMeF]LDSR[Aib]AK([AEEA-AEEA-γGlu-C20 diacid])DFVESIANT-NH2 [Peptide 252] |
| 145 pM | B1 |
| 557 pM | B2 |
| 248 pM | H[Aib]HGS[αMeF]TSDVSK[αMeF]LDSR[Aib]AK([AEEA-AEEA-γGlu-C18 diacid])DFVESIANT-NH2 (not fully specified) [Peptide 251] |
| 1570 pM | H[Aib]HGS[αMeF]TSDVSK[αMeF]LDSR[Aib]AK([AEEA-AEEA-γGlu-γGlu-C18 diacid])D[αMeF]VESIANT-NH2 [Peptide 250] |
| 27.2 pM | H[Aib]HGS[αMeF]TSDVSK[αMeF]LDSRAAK([AEEA-AEEA-γGlu-C18 diacid])D[αMeF]VE[Aib]IANT-NH2 [Peptide 227] |
| 420 pM | H[Aib]HGS[αMeF]TSDVSK[αMeF]LDSRAAK([AEEA-AEEA-γGlu-γGlu-C20 diacid])D[αMeF]VQSIANT-NH2 (not fully specified) [Peptide 244] |

Source: patent US20230357348A1 (AstraZeneca / MedImmune, published 2023)
